Assay results as given in paper PMC9359175.

What was measured:
Experiment in all cases: ITC; […]; 298 K; 20 mM HEPES pH 7.5, 150 mM NaCl; […]
[1] = molecular target: 5HB-H3 (SARS-CoV-2 5-helix bundle, truncated construct) (SARS-CoV-2) (UniProt P0DTC2)
[2] = molecular target: 5HB-H1 (SARS-CoV-2 5-helix bundle, longest construct) (SARS-CoV-2) (UniProt P0DTC2)
[3] = molecular target: 5HB-H4 (SARS-CoV-2 5-helix bundle, shortest construct) (SARS-CoV-2) (UniProt P0DTC2)

For “HR2P, 36-mer peptide derived from SARS-CoV-2 S HR2 (D1168-L1203)”, the Kd [1] was 18.4 nM, the Kd [2] was 9 nM and the Kd [3] was 446 nM.
